According to the DeepSol protein solubility set:

experiment: soluble on expression in E. coli; label from the status in PepcDB or PDB records

Soluble on expression in E. coli, not soluble:
MAHHHHHHMMRWAVDVTGIDVAEDLEREQRKCVYKVPRAANGESWHAVDDWRANASEYNDELGKVWALTRDEVQDAIAERALTANALFCNVGRTLAGALQRQGSITIAAGCASQLRGSCGRGLQWDGLLSNTQSIVSNDFACDAVPSTREVRVFSTFLNAEGKRMTVTVNMTQPTYRGVDVVAAFLQQAVATNESLSQRYSTNPRLYKLFIADEDTGEEEMAAQLDLGAQNFSCYAVNPMPAAKLFLFPQRTALLNTTTRDVNLTVQVRPLDPQAKAVQRQCVVPADMLAESLEATICSRLPASGIIQGSLRIMHGPMELNINEYYNFGAGCGQPNCPIAERTVLSLFRFGVREVVVNGRAVEEAPTEVLRDLTEDIIIDMGVDEAVSFQQFEVICINKYGARQQRLLCVDGEHLYTMRPNASEALPKTTERTIKDIEEVRIFADKPKYMEIAYTKSSHFEEDHFECTTTYNCALLNEKIRIVRRELRKREAEEQAASVKNETAMQRFMTGIRSRWFGGALQS
MTTNNDFYFALLRISILQLLKAQGFDRARPSLVDVMTDLYAKFLSLLASEVSSIAQARCDQDDTIALQDITLALENLGIVKPTNVLDVYDENSELSSSRGMEKFKDWCIYSTQLTDARITALPTVELLQSEEKESDPLSAIPDYLNQLLQNKGAKQKLETKNRKTELIEDLINNNGLDDWIKLVIARQRINMIERASKKESQNVPALPHIAGYKSSILSRHHHTTITNEDRMPSAMTPRDEDALTEIQENPFVTSKLPIMRKENRLENITLSFEDEELESLGEVEGPNQKSQENNNEESFKENNKSLTESPHGDDRDISMFQFDSNVDTKWAEQEDMDSTFQRRTSLDYGGYF
MSLASVQDLGKVEQAAPAQKLTVTIALSLRDRDAAARYLQEVHTPSSPNYHKFLTPSEFRARYAPTEASLAKVAARLQAAGLSVKRIGSTLLQVSGPAATVQKAFGAEVHVFQNKSVVQGAAARYTAPVRASTPGIDLSDVQAVIGLDSRPHFRPHLRQLPSHLQASMDKSASAVTNGNAPGKWTVTDLARHYNITPLYNKGIHGQGATIGIVTLASFTPSDAFQYWSSIGLATDPNRLTVVDIDGGPGAPSDDGGSSETTLDVEQSGGIAPDAKIIVYQAPNTTQGFVDAFAKAIESNAADTLSVSWGEWEWFDQQSQAVNPVNGKSANVLQTYHDLFLQAALQGQTMFAASGDSGAYDVNRAAPLPQYNKVLSVDSPANQQFITAAGATTVPTTLTFHPNGKEMKIKIPTERAWGWDYLNGLCKALGKDPVACGTFPVGDGGGVSSFIGRPFYQNWLPGMQNSPAGQQLVDSSQNPPQVIATLPANFKGRNVPDISMNGDPETGYVVYYTSSKTGFSIQTNNGGTSFVAPQLAGITALLNQSLGGRLGLLNFSLYGLVATGHGYQGFGRHGAPLRDITAGNNWGYNAHRGYDQATGVGAPDVANLDAALRRYFWFEGHHHHHH
MHPALWVSKTGLDAQQTNIATISNNLANASTVGYKKSRAVFEDLFYQNINQPGGQSSQNTELPSGLMLGAGSKVVATQKVHTHGNAQTTTNALDMMVEGDGFFQVTLPDGNIGYTRNGQFTLNGEGTLVTSGSGYPVEPEIVI
MLSLTAHLVLISTIIVKCSAFSKKPSERAKPAAVKKAVEDKQPVKVTAFEQASLNEDKAEAMSNIEPSPKISNSTVPTAPTPKKEKKVVATTKKTERSVAQGPPLVSEHIKDEKKMPSVHKPIRKGSIYANELLTEKPLTDTEPELHPDNHVVKAKSPKPVARTPTARHRNALKPGKINDKSDDTLHDAPSIQKVGGPSYEDAASVNEKEKDVNPK
MGHHHHHHSHMVEFPLPPHLTCAVIKAASLDCEDLLLPIAAMLSVENVFIRPVDPEYQKEAEQRHRELAAKAGGFNDFATLAVIFEQCKSSGAPASWCQKHWIHWRCLFSAFRVEAQLRELIRKLKQQSDFPKETFEGPKHEVLRRCLCAGYFKNVARRSVGRTFCTMDGRGSPVHIHPSSALHEQETKLEWIIFHEVLVTTKVYARIVCPIRYEWVRDLLPKLHEFNAHDLSSVARREVREDARRRWTNKENVKQLKDGISKDVLKKMQRRNDDKSISDARARFLERKQQRTQDHSDTRKETG
MKKVFIPINTKIPVERQFPNRVPIWGNYEFIISTKEPEQEYDYVVVLDDIEYSLRLMCCKQNICLFTGEPPYVKLYPRKYLNQFGHVYTCQSSVLKRDNACLSYPALPWMLYYNFYNDKQKEELLIDYDFLKNRPTLQRKNKICLFTSNKKISKGHIERIKFALKLQEEMPDLIDIYGSGFTNVDYKYEVMVQYKYAIVIENCSYPYYWTEKLADTFLSGCYPIYFGDPHIGDFFSKEEMAVIDIRNFDESKQTIKKIIDNNVYEKQYENICHARDKILDKYNMFSLISSTLDSIPAKLDKEKLLLSPMRLSVFDRIRNRIYRLFYLEHHHHHH
MVTGLICFTGCSDDFLKDKKVYGSYDASVVYENYETAKSRVDFLYQSLLPSSTGGSNALTDITSAGIDDDFSKCTEEYGDYSIFNDPTASLTIQTVPDYFYVINSERSPWGRIRECNNVIEGVTGSATLSQTEKEQLLGQAYFFRAWRYYLLVKMYGGVPIVDHVQNPVIGDGNGENLVIPRSSTKACIDFICDDLELAASYLPARWQNEGQDYGRITAGAALALKGRTLLLYASPLFNRADDASRWKDAYDANFAAITKLNEGNFGLAYEGNGGEDNAKNWARMFATYTGGSEAVFVTLYNNVSPIASQNINRYNLWEQGIRPGNINGGGGKTPTAEIIDIFPMIDGKKPMESGVHYDPKKFFLNRDPRFYRTFAFPGVEWKFNSGNVDFSGATMSGLCPTRYTSGANYELWNYCWYTTADERNNPSRSGFAADMLGTKNRGVYVRKRSDDFDLGTSLYVFTDNSSGDQQGFRRSAAPYMEIRYAEVLLNLAESACGAGGTYHAEGVKALKAVRGRVGYTSANNYGLDAAIETDRAKLFEAILYERQVELAFEGKRAYDMRRWMLFDGGVGQGALNASWALSGFGGNTCTYLGVTPMNERGKRYRIEINVEGTGSANNDSDPIKNVERPAALTLNEKIATEADGETILDPAVSSICTFYDTYFSRKDISLDGNVLDINPYFQPRYYFFGLRQSAQQTNATLYQTIGWEDYAHGGMGTFDPLAE
MGSDKIHHHHHHYLPDDEPKKLIVNAMMQTENNDNRIYLHYTGWTATTPVTDGIIHLYINGKLSETITAEDDYYPVKSIFRTGDKVKIEASSENGKYKAKAETRISAPLQIINVDTTYISLRDYNSWVGGKPVYDNYLRLNIQLKQPDIEAENTYYRLEIKQIFYSHKWHDGRDTLSIDTTYNYNYIYDTALTDGKPGHAIDEGFELIQKWNNYFGLFKSCYFKNREYNMTIDLKEDINYIHIDSQKAERYISIRFYSISESEHRYLYAMSSALDFDAENFIYAVPLIPNNIKGGIGIFSIANQVKYKLKEENCQDRY

Soluble on expression in E. coli, soluble:
SSALIQTPSSLLVQTNHTAKMSCEVKSISKLTSIYWLRERQDPKDKYFEFLASWSSSKGVLYGESVDKKRNIILESSDSRRPFLSIMNVKPEDSDFYFCATVGSPKMVFGTGTKLTVVDVLPTTAPTKKTTLKMKKKKQCPFPHPETQKG
MSLDNIERTLGQLFEGRDFEKEYQGLKQQVLHYQPIQDFFKEHKEEVTEQLVNQNLSNLYEFMTQHKKFTEQEETLMPGYAPKLVLNGEFITVTYYPTKEKIEEDKRRAVERRIRSLYMPKQVVDANLADFYTDEESRQLALVEAYQFLNNYPPKSGERVKGLFIHGSFGTGKSYLLGALAKELALKGISSTLVYLPEFMREVKQSISDNTVGEKIQFAKETEVLMLDDIGAESMTAWTRDEVLGAILQFRMQEELPTFFSSNYNMDQLENHLMFAQNGTEEKLKARRIMERVRYLSKEVNLEGEGHHHHHH
MTKVDFWPTLKDAYEPLYPQQLEILRQQVVSEGGPTATIQSRFNYAWGLIKSTDVNDERLGVKILTDIYKEAESRRRECLYYLTIGCYKLGEYSMAKRYVDTLFEHERNNKQVGALKSMVEDKIQKETL
MGHHHHHHGGHMSLTISLAKGQKVDLTKTNPGLSKVVVGLGWDTNKYDGGHDFDLDSSVFLLDAAGKCASPNDFIFYNQLEGGNGSVVHSGDNLTGAGEGDDENVKVNLSAVPANIDKISFVITIHDAEARSQNFGQVSNAFVRIVNEETNEELIRYDLAEDFSIETAIIAGELYRHNGEWKFSAIGSGYQGGLARIATDYGLQVGEGGS
